Laboratory results from PMC7785527, “Human Short Peptidoglycan Recognition Protein PGLYRP1/Tag-7/PGRP-S Inhibits Listeria monocytogenes Intracellular Survival in Macrophages” (Frontiers in Cellular and Infection Microbiology, 2020).

Target: the molecule itself
Assay: SDS-PAGE without reducing agent (bands identified by MALDI-MS); 3 ug purified PGLYRP1; Laemmli loading buffer without beta-mercaptoethanol (compared with 5 mM beta-mercaptoethanol); Coomassie stained gel

B1: human recombinant PGLYRP1/Tag-7/PGRP-S with a C-terminal triple DED epitope (natural protein, UniProt O75594 22-196, looked up)
chain: QETEDPACCSPIVPRNEWKALASECAQHLSLPLRYVVVSHTAGSSCNTPASCQQQARNVQHYHMKTLGWCDVGYNFLIGEDGLVYEGRGWNFTGAHSGHLWNPMSIGISFMGNYMDRVPTPQAIRAAQGLLACGVAQGALRSNYVLKGHRDVQRTLSPGNQLYHLIQNWPHYRSP
notes: called full-sized / full-size; On non-reducing SDS-PAGE the preparation is a mix of monomer (~25 kDa) and disulfide-linked homodimer (~60 kDa) of similar intensity; also called recombinant tagged PGLYRP1
stoichiometry N: 2
